The results in this text go back to article PMC6737378, “Molecular Basis for ATP-Hydrolysis-Driven DNA Translocation by the CMG Helicase of the Eukaryotic Replisome” (Cell Reports, 2019).

Sequences and labels used below:
B1: Saccharomyces cerevisiae Mrc1 (natural protein, S. cerevisiae, UniProt P25588 1-1096, looked up)
chain: MDDALHALSSLTAKKRTTTYKKVAVPILDENDNTNGNGPNDIDNPPELTGNGFLFANATLNRVKNRLEGKKAPEQNHNNGKDRSENSLPTQLISNLYDGGEELEKSEVKDNSYSEKNVSSSFTQTQRIPVSIQQDKVFNVPIHSVNDGKPTQLIKEDGLVNETSQALKTPLTTGRPGATQRIDSSGATSQTQPIKSIEPQSQIITTSSNHSNALSPKIPIIPTELIGTSPLFQSIQNRGPDTQMDVPPQTAHDEDKTQAIGIPQATHQEQKTQIDTVAQTLQDEVPHTLKIREIQSELASEDSKREKARNVEYKKPQKPIPTKKFFSKESFLADFDDSSSNEDDDIKLENAHPKPVQNDDELHENKSVELNLTDETRINEKRVPLLSSYANNLKREIDSSKCITLDLDSDSDEYGDDDMDSIKLSKDESVLPISQLSKATILNLKARLSKQNQKLSQRPNKSKDPKVDHNVLLNTLRKASRKQILDHQKEVIETKGLKLEDMAKEKEIVENLLEQEILRNKRIRQKEKRREKLEENDFQLNAHDSGSDSGSESSGFALSGNEIADYESSGSENDNRRESDSEKEDDEIILKQKKSHHVKHIINESDSDTEVEAKPKEKADESLPKRIAINLGHYGDNIGEDTDKFQETNVLDTQNIEEVMAERNTIENEVKDDVYVNEEADEAIRRQLIDKEKLQLKQKEKEHEAKIKELKKRGVTNFFEMEAEESEDEWHGIGGADGEGSDDYDSDLEKMIDDYSKNNFNPHEIREMLAAENKEMDIKMINKILYDIKNGGFRNKRAKNSLELELSDDDEDDVLQQYRLKRRELMRKRRLEIGDDAKLVKNPKSSAFFESMVEDIIEYKNPFGAEEEYNLDITSTATDLDTQDNSINVGDNTGNNEQKPVDQKNKKVIISEDFVQKSLSFLKSNNYEDFETDKELSRIQHGNDEAIEDLYTLKQNSSIKSFTNSQTDSTTSKTVNTIIDLEKRPEDEDEVENGDTSLVGVFKHPSIIKSFASRTDINDKFKEGNKTVKILKSYKTVGSSKASITYMGKTRKLIAPKRKTEGSHRYHHDHHNKKMKMKTKTKSNKLFESGQDSFDN
notes: Mrc1, S. cerevisiae, from strain yJY32 (Yeeles et al., 2017); Construct in Yeeles et al., 2017; also called ScMrc1; FLAG-Mrc1; source: S. cerevisiae strain yJY32, purified (anti-FLAG M2 agarose, MonoQ)
B2: Saccharomyces cerevisiae Csm3-Tof1 complex (complex, S. cerevisiae)
chain 1: MDQDFDSLLLGFNDSDSVQKDPTVPNGLDGSVVDPTIADPTAITARKRRPQVKLTAEKLLSDKGLPYVLKNAHKRIRISSKKNSYDNLSNIIQFYQLWAHELFPKAKFKDFMKICQTVGKTDPVLREYRVSLFRDEMGMSFDVGTRETGQDLERQSPMVEEHVTSAEERPIVADSFAQDKRNVNNVDYDNDEDDDIYHLSYRNRRGRVLDERGNNETVLNNVVPPKEDLDALLKTFRVQGPVGLEENEKKLLLGWLDAHRKMEKGSMTEEDVQLIQSLEEWEMNDIEGQHTHYDLLPGGDEFGVDQDELDAMKEMGF
chain 2: MSADLQQGTTNAADFSLTVLRARIALLATAIGGPDYTSQIDPPPYKLGDDCLACLKDLKRWFKLVDDQQKRWDVAMAVAEYRILTDDLLPILIDWENKCSLAAKLAKNNPDHEEFRNKAYYDKIALNCLQLLVLMTWPLIVTEQSSSNQITLYGELKKHQLVYKKTILSMESGKVLRAAIRLALDVIKIDRLSRTPRDNMVLKLVLNFFRNVIAIEPGEFTINTKKSMPKKGITSIDTLPPNVSMDDISLNTVISSFHKNKVFGFLLTLTSSLSKEFDQDFINIPLLEIMFYFTKDVNQELLFPRQFETGTHSKVVNKNESSSANNIVTSAGFELSKLLQKEHQMRKNVIKHTSARHSRFGGLLSIQTPDKTRLTVSGSQALVDEKIALQKLDDSKKWNKRIIKKHQSVAAEGLPNSLLNSQTGKAIFFTESNGKHFKEFINNFIDSGFNILLHSVTNYFTTEQDRMVTLEQVEYLLFFAWFVKYQLLRSKIDNSADIKQVSEALKEVTFILVSSLLRSAYDLKNWTVTHAGMIAFNELLNLVSRTKAAQEEDSTDIEFIVSRLFSDERIQLLSNLPKIGSKYSLQFMKSCIELTHSVLKVLEQYSDDKTLVIEGKSRRQKKFNISEGDITKLIEEENVDRDEALDILTSSLRSIEVNFQKVQANYMTEPVIETYINFLERFRELEDDSIKKVFSFFHRVFVQAKEQALLFRFDLIILLREMLSPDGLDRMSRSRKYVSQFSDYFLARLKKRLKKSPAWFVGLLFPPLHNSEVGFYQRYGEYNVLNNESMYAAPASQFKPIPDEEALPPSILLDMKYGVLVSTLLDDGKTELLDQLLKHITHTLDIFKSWLTVNVNAGKETVNPPNEYFTLTGVLNNDPIFKDKDYRALLLLIGYSIPRKINEPCFLPGTVEVSDLTVSCELVKKYLSTPFETPNGLPSSSYLLRVRSEKDSFSHNEQDGWEGDDDYDYNDPYIVPDDQILSKSDAAYFKDLDNNASDKLKGTKFSKGIARSKKKDKRKRRKGEAKTNLPMFGDQDDERPQTVRERHGVFSKEFISDSEDDEDLMNPIFFENETYMRWLLDKNNGQLTEDRYIQFAKFAAERMNNGGVVTGDYTSLFGGSIPSIESIRATESSSFAPDKSLISLASHVASEMSIFDVNNNNNNQLSDDDVNSESRNSLGSSQPSNSQNMFQSEVYSRKESTKRSLEASAADESDEDEEAIRLFGKKSRVVLSQGDSDD
notes: Csm3, S. cerevisiae, from strain yAE48 (Yeeles et al., 2017); Tof1, S. cerevisiae, from strain yAE48 (Yeeles et al., 2017); Construct in Yeeles et al., 2017; also called ScCsm3/Tof1
B3: Saccharomyces cerevisiae Ctf4 trimer (natural protein, S. cerevisiae, UniProt Q01454 1-927, looked up)
chain: MVSVIDKLVFDFGGKTLVSLAPDNNTLCVANKNGLTKILKTNNPEEEPETLDSSKLVSSIKCYSNSHFLMTTMQGDALRYNIDSSQEELLARFALPLRDCCVIHSGKMAVFGGDDLELILLELDDETHKKHAIKIDEQVSQISYNSQMNILAVSMINGKVQIFSLTSTIPNKVHELNDYIVANSYDDTHRDKILSNMMDDIDKDNDNDLSETADPDENNVADPEFCAANRICTRVAWHPKGLHFALPCADDTVKIFSIKGYSLQKTLSTNLSSTKAHFIDLQFDPLRGTYIAAVDLNNKLTVWNWETSEIHYTREFKRKITNIAWKIQADSKTLDLVLGTWSGSIAIVQNLAESVVSNIPDQSVAESSTKHGLFVDSESDLENLEGNDDINKSDKLFSDITQEANAEDVFTQTHDGPSGLSEKRKYNFEDEEDFIDDDDGAGYISGKKPHNEHSYSRVHKTHSFPISLANTGKFRYMPFSPAGTPFGFTDRRYLTMNEVGYVSTVKNSEQYSITVSFFDVGRFREYHFEDLFGYDLCFLNEKGTLFGQSKTGQIQYRPHDSIHSNWTKIIPLQAGERITSVAATPVRVIVGTSLGYFRSFNQFGVPFAVEKTSPIVALTAQNYRVFSVHYSQFHGLSYSLSELGTSSKRYYKRECPLPMSLPNINSDMKKDANLDYYNFNPMGIKSLFFSSYGDPCIFGSDNTLLLLSKWRSPEESKWLPILDSNMEIWKMSGGKETTDIHVWPLALAYDTLNCILVKGKHIWPEFPLPLPSEMEIRMPVFVKSKLLEENKAILNKKNEIGADTEAEEGEEDKEIQIPVSMAAEEEYLRSKVLSELLTDTLENDGEMYGNENEVLAALNGAYDKALLRLFASACSDQNVEKALSLAHELKQDRALTAAVKISERAELPSLVKKINNIREARYEQQLK
notes: Ctf4, S. cerevisiae, expression plasmids of Gambus et al., 2009; Called a trimer in the methods; Construct in Gambus et al., 2009; also called ScCtf4; source: E. coli BL21 (DE3), purified (Ni-NTA, MonoQ, Superdex 200)

The test system of experiment [1] is T1, Drosophila CMG (Cdc45-MCM-GINS helicase; DmCMG).
T1 construct: gene Mcm2; with Cell division control protein 45; DNA replication complex GINS protein PSF1; DNA replication complex GINS protein PSF2; DNA replication complex GINS protein PSF3; DNA replication complex GINS protein SLD5
In words: cryo-EM structure. The note with it: DNA fork bound, 5 mM ATP elution buffer, 2 mM Mg(OAc)2, pH 7.6; bipartite MCM inter-protomer ATPase sites; states 1A, 1B, 2A, 2B at 3.70-4.46 Å; ADP at loosened interfaces, arising during ATP turnover. The experiment is classed as binding, Drosophila melanogaster. From the text:
cryo-EM structure on Drosophila CMG (Cdc45-MCM-GINS helicase; DmCMG) | ATP at inter-protomer interfaces is shown in red.

Experiment [2] addresses T2, Saccharomyces cerevisiae CMG helicase (Cdc45-MCM-GINS) (S. cerevisiae, UniProt P29469 1-868; P24279 1-971; P30665 1-933; P29496 1-775; P53091 1-1017; P38132 …).
T2 construct: Mcm2, S. cerevisiae, subunit of the CMG from strain yJCZ3 (Zhou et al., 2017); Mcm3, S. cerevisiae, subunit of the CMG from strain yJCZ3; Mcm4, S. cerevisiae, subunit of the CMG from strain yJCZ3; Mcm5, S. cerevisiae, subunit of the CMG from strain yJCZ3; Mcm6, S. cerevisiae, subunit of the CMG from strain yJCZ3; Mcm7, S. cerevisiae, subunit of the CMG from strain yJCZ3; Cdc45, S. cerevisiae, …
In words: DNA fork-affinity purification with silver-stained gel and negative-stain EM 2D averaging; desthiobiotin DNA fork on streptavidin magnetic beads; 250 nM CMG mixed with 350 nM Mrc1 + Csm3-Tof1, 2 mM ATPγS, then 80 nM Polε; Protein Binding Buffer, 30°C; eluted with biotin; dropouts without Mrc1 or Csm3-Tof1; parallel experiment without Polε on an M.HpaII-labeled fork. Conditions: both partners purified.

The target of experiment [3] is B2. In words: DNA-affinity purification; desthiobiotin fork or blunt duplex DNA on streptavidin magnetic beads; 350 nM Mrc1, 350 nM Csm3-Tof1 or 350 nM MCT pre-incubated on ice; Protein Binding Buffer, 30°C; eluted with biotin. The note with it: both partners purified.
The target in experiment [4] is T2, Saccharomyces cerevisiae CMG helicase …. Briefly: pull-down + other: negative-stain EM; 250 nM CMG held on Calmodulin Affinity Resin, 500 nM Ctf4 added, 1 mM ATPγS, 30°C; eluted with EDTA/EGTA, cross-linked with 0.01% glutaraldehyde and imaged. The note with it: both partners purified.

On to `Nc1ncnc2c1ncn2[C@@H]1O[C@H](COP(=O)(O)OP(=O)(O)O)[C@@H](O)[C@H]1O` [ADP], for which the cryo-EM structure result in experiment [1] is “The C-terminal subunit in the spiral is ADP bound as are the non-engaged seam subunits”. Consider B1, for which the binding result in experiment [2] and in experiment [3] was “binds” each time. With B2, the binding result in experiment [2] was “binds”. Take B3: the binding result in experiment [4] is reported as “binds”.
